# B1: GTP-binding protein Di-Ras1 (Mus musculus), Q91Z61 (parent)
# chain: MPEQSNDYRVVVFGAGGVGKSSLVLRFVKGTFRDTYIPTIEDTYRQVISCDKSVCTLQITDTTGSHQFPAMQRLSISKGHAFILVFSVTSKQSLDELSPIYKLIVQIKGSVEDIPIMLVGNKCDETQREVHTREAQAVAQEWKCAFMETSAKMNYNVKELFQELLTLETRRSVSLSVDGKRSSKQKRADRIKGKCALM
# B2: Phosphatidylinositol 4,5-bisphosphate 3-kinase catalytic subunit beta isoform (Mus musculus), Q8BTI9 (parent)
# chain: MPPAMADNLDIWAVDSQIASDGAISVDFLLPTGIYIQLEVPREATISYIKQMLWKQVHNYPMFNLLMDIDSYMFACVNQTAVYEELEDETRRLCDVRPFLPVLKLVTRSCDPAEKLDSKIGVLIGKGLHEFDALKDPEVNEFRRKMRKFSEAKIQSLVGLSWIDWLKHTYPPEHEPSVLENLEDKLYGGKLVVAVHFENSQDVFSFQVSPNLNPIKINELAIQKRLTIRGKEDEASPCDYVLQVSGRVEYVFGDHPLIQFQYIRNCVMNRTLPHFILVECCKIKKMYEQEMIAIEAAINRNSSNLPLPLPPKKTRVISHIWDNNNPFQITLVKGNKLNTEETVKVHVRAGLFHGTELLCKTVVSSEISGKNDHIWNEQLEFDINICDLPRMARLCFAVYAVLDKVKTKKSTKTINPSKYQTIRKAGKVHYPVAWVNTMVFDFKGQLRSGDVILHSWSSFPDELEEMLNPMGTVQTNPYAENATALHITFPENKKQPCYYPPFDKIIEKAAELASGDSANVSSRGGKKFLAVLKEILDRDPLSQLCENEMDLIWTLRQDCRENFPQSLPKLLLSIKWNKLEDVAQLQALLQIWPKLPPREALELLDFNYPDQYVREYAVGCLRQMSDEELSQYLLQLVQVLKYEPFLDCALSRFLLERALDNRRIGQFLFWHLRSEVHTPAVSVQFGVILEAYCRGSVGHMKVLSKQVEALNKLKTLNSLIKLNAVKLSRAKGKEAMHTCLKQSAYREALSDLQSPLNPCVILSELYVEKCKYMDSKMKPLWLVYSSRAFGEDSVGVIFKNGDDLRQDMLTLQMLRLMDLLWKEAGLDLRMLPYGCLATGDRSGLIEVVSTSETIADIQLNSSNVAATAAFNKDALLNWLKEYNSGDDLDRAIEEFTLSCAGYCVASYVLGIGDRHSDNIMVKKTGQLFHIDFGHILGNFKSKFGIKRERVPFILTYDFIHVIQQGKTGNTEKFGRFRQCCEDAYLILRRHGNLFITLFALMLTAGLPELTSVKDIQYLKDSLALGKSEEEALKQFKQKFDEALRESWTTKVNWMAHTVRKDYRS
# Variants of: B1
# Conditions: with pk3cb_mouse Pik3cb
row,Variant,effect of a mutation on the interaction
1,MPEQSNDYRVVVFGAGGVGKSSLVLRFVKGTFRDTYDPTIEDTYRQVISCDKSVCTLQITDTTGSHQFPAMQRLSISKGHAFILVFSVTSKQSLDELSPIYKLIVQIKGSVEDIPIMLVGNKCDETQREVHTREAQAVAQEWKCAFMETSAKMNYNVKELFQELLTLETRRSVSLSVDGKRSSKQKRADRIKGKCALM [I37D],decreasing interaction strength

# Variants of: B2
# Conditions: with rac1_mouse Rac1, P63001
row,Variant,effect of a mutation on the interaction
1,S205D;V244A,disrupting interaction strength

# Variants of: B2
# Conditions: with rac1_mouse Rac1, P63001
# Remark: another data set of the same source
row,Variant,effect of a mutation on the interaction
1,E183A,decreasing interaction strength
2,K190A,decreasing interaction strength
3,S205D;K224A,decreasing interaction strength
4,T227D,decreasing interaction strength
5,Y187A,disrupting interaction strength
6,V203S,disrupting interaction strength
7,V203K,disrupting interaction strength
8,V192S,disrupting interaction strength
9,V192K,disrupting interaction strength
10,D202A,disrupting interaction strength
11,Q223D,decreasing interaction strength
12,K185A,decreasing interaction strength
13,R229A,disrupting interaction strength
14,L186A,disrupting interaction strength
15,E219A,decreasing interaction strength
16,K231A,decreasing interaction strength
17,A194S,decreasing interaction strength
18,A194K,disrupting interaction strength
19,Q207D,decreasing interaction strength

# Variants of: B2
# Conditions: with cdc42_mouse Cdc42, P60766
# Sequence of cdc42_mouse Cdc42, P60766 (P60766 whole entry, looked up): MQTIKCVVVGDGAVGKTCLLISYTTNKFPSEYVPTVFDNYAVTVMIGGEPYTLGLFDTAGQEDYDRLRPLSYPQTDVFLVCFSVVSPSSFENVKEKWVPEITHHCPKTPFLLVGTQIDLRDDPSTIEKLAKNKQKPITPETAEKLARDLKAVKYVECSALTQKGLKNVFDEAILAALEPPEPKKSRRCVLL
row,Variant,effect of a mutation on the interaction
1,E183A,decreasing interaction strength
2,K190A,decreasing interaction strength
3,S205D;K224A,decreasing interaction strength
4,T227D,disrupting interaction strength
5,Y187A,disrupting interaction strength
6,V203S,disrupting interaction strength
7,V203K,disrupting interaction strength
8,V192S,disrupting interaction strength
9,V192K,disrupting interaction strength
10,D202A,disrupting interaction strength
11,Q223D,decreasing interaction strength
12,K185A,decreasing interaction strength
13,R229A,disrupting interaction strength
14,L186A,disrupting interaction strength
15,E219A,decreasing interaction strength
16,K231A,disrupting interaction strength
17,A194S,decreasing interaction strength
18,A194K,disrupting interaction strength
19,Q207D,decreasing interaction strength

# Variants of: B2
# Conditions: with cdc42_mouse Cdc42, P60766
# Remark: another data set of the same source
row,Variant,effect of a mutation on the interaction
1,S205D;K224A,disrupting interaction strength

# Variants of: B2
# Conditions: with rash_mouse Hras
row,Variant,effect of a mutation on the interaction
1,S205D;K224A,disrupting interaction strength

# Variants of: B2
# Conditions: with rac1_mouse Rac1, P63001
# Remark: another data set of the same source
row,Variant,effect of a mutation on the interaction
1,S205D;K224A,disrupting interaction

# Variants of: B2
# Conditions: with cdc42_mouse Cdc42, P60766
# Remark: another data set of the same source
row,Variant,effect of a mutation on the interaction
1,S205D;K224A,disrupting interaction

# From IntAct's records for PubMed 23706742
